The values that follow come from paper doi:10.1101/2023.07.03.547593 (bioRxiv, 2023).

Positions count from the first letter of the chain named. Names may count otherwise.

The data set “cryo-EM structure” concerns the molecule itself. Put plainly: cryo-EM structure.
The data set “SEC” concerns the molecule itself. The data set can be described thus: SEC. For orientation: In gel filtration, larger molecules generally elute earlier.

B1: nuclease-deactivated AsCas12f1 variant (D225A) (enzyme)
chain: MIKVYRYEIVKPLDLDWKEFGTILRQLQQETRFALNKATQLAWEWMGFSSDYKDNHGEYPKSKDILGYTNVHGYAYHTIKTKAYRLNSGNLSQTIKRATDRFKAYQKEILRGDMSIPSYKRDIPLDLIKENISVNRMNHGDYIASLSLLSNPAKQEMNVKRKISVIIIVRGAGKTIMDRILSGEYQVSASQIIHDDRKNKWYLNISYDFEPQTRVLDLNKIMGIALGVAVAVYMAFQHTPARYKLEGGEIENFRRQVESRRISMLRQGKYAGGARGGHGRDKRIKPIEQLRDKIANFRDTTNHRYSRYIVDMAIKEGCGTIQMEDLTNIRDIGSRFLQNWTYYDLQQKIIYKAEEAGIKVIKIDPQYTSQRCSECGNIDSGNRIGQAIFKCRACGYEANADYNAARNIAIPNIDKIIAESIK
Regarding B1, the binding result in the data set “cryo-EM structure” is “binds”.

B2: Acidibacillus sulfuroxidans Cas12f1, wild type (enzyme)
chain: B1 chain with A225D
In the case of B2, in the data set “SEC”, the stoichiometry N (as a rule, a count of units in the complex or per binding partner) came to 2.
